According to patent US20260201033A1 (LTZ THERAPEUTICS, published 2026):

T1: mouse CLEC5A (R&D Systems, Cat #: 8438-CL-050) (mouse, UniProt Q9R007 26-190, limits assumed)
T1 construct: Bought protein; also called recombinant mouse CLEC5A protein
T1 sequence: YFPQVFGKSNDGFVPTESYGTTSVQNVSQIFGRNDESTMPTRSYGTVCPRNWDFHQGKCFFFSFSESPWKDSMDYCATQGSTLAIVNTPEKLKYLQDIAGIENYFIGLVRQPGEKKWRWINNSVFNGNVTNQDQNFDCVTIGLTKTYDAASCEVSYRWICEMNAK

T2: Human CLEC5A His Tag protein (ACROBiosystems, Cat #: CLA-H5243) (human, UniProt Q9NY25 28-188, limits assumed)
T2 construct: Bought protein with a His tag; also called recombinant human CLEC5A protein
T2 sequence: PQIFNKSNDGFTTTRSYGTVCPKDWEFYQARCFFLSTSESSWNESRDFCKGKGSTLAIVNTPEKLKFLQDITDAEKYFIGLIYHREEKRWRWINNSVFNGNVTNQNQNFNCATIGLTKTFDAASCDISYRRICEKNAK

T3: Human C-type lectin domain family 5 member A (CLEC5A), endogenous on human monocytes and M0 macrophages (human, UniProt Q9NY25 1-188)
T3 construct: Endogenous CLEC5A on primary human monocytes and monocyte-derived M0 macrophages; also called MDL-1; M0 macrophages (CLEC5A+) cells
T3 sequence: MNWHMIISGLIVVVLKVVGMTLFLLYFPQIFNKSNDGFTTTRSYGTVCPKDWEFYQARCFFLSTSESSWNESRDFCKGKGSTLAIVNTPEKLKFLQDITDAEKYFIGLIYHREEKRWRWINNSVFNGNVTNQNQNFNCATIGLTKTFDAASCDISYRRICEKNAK

T4: CD79b on Ramos cells and on endogenous B cells of human PBMCs (human, UniProt P40259 29-229)
T4 sequence (looked up): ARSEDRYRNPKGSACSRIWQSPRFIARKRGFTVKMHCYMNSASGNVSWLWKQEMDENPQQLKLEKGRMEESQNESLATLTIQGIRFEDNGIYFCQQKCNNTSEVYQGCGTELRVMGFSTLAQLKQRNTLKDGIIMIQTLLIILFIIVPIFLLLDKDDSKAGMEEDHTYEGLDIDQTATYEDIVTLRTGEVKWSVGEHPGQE


What was measured:
[1] = biological target: T1, mouse CLEC5A (R&D Systems, Cat #: …); experiment: ELISA, plate coated with mouse CLEC5A
Protocol: Protein antigen was aspirated, and wells were washed 3 times with 400 μL of wash buffer (0.05% Tween® 20 in PBS) using a plate washer. […] 100 μL of primary antibody was added to appropriate wells and incubated for 1 hour at room temperature. Primary antibody was aspirated, and wells were washed 3 times with 400 μL of wash buffer (0.05% Tween® 20 in PBS) using a plate washer. […] Secondary antibody was aspirated, and wells were washed 3 times with 400 μL of wash buffer (0.05% Tween® 20 in PBS) using a plate washer. […] 100 μL of Fisher 1N Sulfuric Acid (Cat #: SA212-2) stop solution was added to each well and the plate was read in a plate reader at 450 nm. For analysis, OD450 of each antibody was plotted using GraphPad Prism software (Version 9.4.1; GraphPad Software Inc.).

[2] = biological target: T2, Human CLEC5A His Tag protein …; experiment: ELISA, plate coated with human CLEC5A
Protocol: Protein antigen was aspirated, and wells were washed 3 times with 400 μL of wash buffer (0.05% Tween® 20 in PBS) using a plate washer. Anti-CLEC5A antibodies were prepared as the primary antibody at 5 μg/mL and serially diluted 3-fold through 11 points (diluted concentrations) with reagent buffer (PBS+0.05% BSA). 100 μL of primary antibody was added to appropriate wells and incubated for 1 hour at room temperature. Primary antibody was aspirated, and wells were washed 3 times with 400 μL of wash buffer (0.05% Tween® 20 in PBS) using a plate washer. […] Secondary antibody was aspirated, and wells were washed 3 times with 400 μL of wash buffer (0.05% Tween® 20 in PBS) using a plate washer. […] 100 μL of Fisher 1N Sulfuric Acid (Cat #: SA212-2) stop solution was added to each well and the plate was read in a plate reader at 450 nm. For analysis, OD450 of each antibody was plotted using GraphPad Prism software (Version 9.4.1; GraphPad Software Inc.).

[3] = biological target: T3, Human C-type lectin domain family 5 …; experiment: flow cytometry on human M0 macrophages, anti-human IgG PE
Protocol: About 50,000 M0 macrophages were incubated with serially diluted antibodies in FACS buffer (PBS+0.5% BSA) for 30 minutes on ice. […] For analysis, the mean fluorescence intensity (MFI of PE) of each antibody was determined and plotted using GraphPad Prism software (Version 9.4.1; GraphPad Software Inc.).

[4] = biological target: T4, CD79b on Ramos cells and on endogenous …; experiment: cell-based or functional assay
[5] = biological target: T4, CD79b on Ramos cells and on endogenous …; experiment: cell-based or functional assay; remark: listed apart in the source
[6] = biological target: T4, CD79b on Ramos cells and on endogenous …; experiment: cell-based or functional assay; remark: listed apart in the source
[7] = biological target: T4, CD79b on Ramos cells and on endogenous …; experiment: cell-based or functional assay; remark: listed apart in the source
[8] = biological target: T4, CD79b on Ramos cells and on endogenous …; experiment: flow cytometry on Ramos cells (CD79b+), anti-human IgG PE, MFI (PE)
Protocol: Binding abilities of CD79b/CLEC5A bispecific antibodies to Ramos cells (CD79b+) were evaluated. […] For analysis, the mean fluorescence intensity (MFI of PE) of each antibody was determined and plotted using GraphPad Prism software (Version 9.4.1; GraphPad Software Inc.).

EC50 [1] [pM]	EC50 [2] [pM]	EC50 [3] [pM]	EC50 (read off the curve) [8] [pM]	Binder	IC50 (nM), Ramos cell killing by PBMCs (test 2), Donor 234 [4] [nM]	IC50 (nM), killing of endogenous B cells by PBMCs, Donor 234 [5] [nM]	IC50 (nM), Ramos cell killing by M0 macrophages, Donor 100 [6] [nM]	IC50 (nM), Ramos cell killing by M0 macrophages, Donor 159 [6] [nM]	IC50 (nM), Ramos cell killing by M0 macrophages, Donor 161 [6] [nM]	IC50 (nM), Ramos cell killing by M0 macrophages, Donor 233 [6] [nM]	IC50 (nM), Ramos cell killing by M2 macrophages, Donor 100 [7] [nM]	IC50 (nM), Ramos cell killing by M2 macrophages, Donor 233 [7] [nM]
120	310	9800	–	6A5, chimeric rabbit/human IgG1 anti-CLEC5A antibody (Fc-silenced) (antibody, V domains shown, also called ch6A5) VH: QQQLEESGGGLVKPGGTLTLTCTASGFSFSSSYYMCWVRQAPGKGLELIACIYSSSGRTWYATWVNGRFTISRSTSLNTVDLKMTSLTAADTATYFCARSYAGYGGYGYAYFNLWGPGTLVTVSS VL: DIVMTQTPASVEAGVGGTVTIKCQASEDIYSSLAWYQQKAGQRPKLLIYDASTLASGVPSRFKGSGSGTEYTLTISGVQPDDAATYYCQNYYDSTGSGYGAAFGGGTEVVVK	–	–	–	–	–	–	–	–
–	–	–	~900	CD79b/5C7 (2+2 A) Fc-optimized (bispecific antibody, human IgG1, kappa) heavy: EQQLVETGGGLIQPGGSLRLSCAASGFTINIDYWISWVRQAPGKGLEWIGIIDPGDGTTYFAIWVSGRFTISFDNSKNTVYLQMNSLRAEDTAVYFCVREFSASAYQYDLWGPGTLVTVSSASTKGPSVFPLAPSSKSTSGGTAALGCLVKDYFPEPVTVSWNSGALTSGVHTFPAVLQSSGLYSLSSVVTVPSSSLGTQTYICNVNHKPSNTKVDKKVEPKSCDKTHTCPPCPAPELLAGPSVFLFPPKPKDTLMISRTPEVTCVVVDVSHEDPEVKFNWYVDGVEVHNAKTKPREEQYNSTYRVVSVLTVLHQDWLNGKEYKCKVSNKALPLPEEKTISKAKGQPREPQVYTLPPSRDELTKNQVSLTCLVKGFYPSDIAVEWESNGQPENNYKTTPPVLDSDGSFFLYSKLTVDKSRWQQGNVFSCSVMHEALHNHYTQKSLSLSPGK light: ELVMTQSPATLSVSPGERATLSCRASEDIENYLAWYQQKPGQPPRLLIYRASTLSSGVPARFSGSGSGTEFTLTISSLQSEDFAVYYCQQGYRNSNVDNPFGGGTKVEIKRTVAAPSVFIFPPSDEQLKSGTASVVCLLNNFYPREAKVQWKVDNALQSGNSQESVTEQDSKDSTYSLSSTLTLSKADYEKHKVYACEVTHQGLSSPVTKSFNRGECGGGGSGGGGSGGGGSDIQMTQSPSSLSASVGDRVTITCQASESVDRNNRLAWFQQKPGKPPKLLIYTTSTLASGVPSRFSGSGSGTDFTLTISSLQPEDVATYYCAGYRGAHTDGDAFGCGTKVEIKGGGGSGGGGSGGGGSGGGGSEQQLVESGGGLVKPGGSLRLSCAASGFSFSRSSYMCWVRQAPGKCLEWIGCLSVGDGHTYYASWAKGRFTISKDSAKNSVYLQMNSLRAEDTAVYFCARAPSYSGDGGHGYDLWGPGTLVTVSS	0.0675	0.0154	0.002	0.001	0.0013	0.002	0.001	0.003
